Measured values as given in patent US20230242876A1 (SHANGHAI SINOBIO BIOTECH, published 2023).

How the values were obtained:
Assay in all cases: ELISA, antigen coated at 1 ug/ml, binder titrated from 10 ug/ml, OD450
CD3-GITRL BsM_D = target: T1, CD3-GITRL BsM_D
T1 construct: glycosylated, disulfide-linked dimer; also called anti-CD3/GITRL bispecific molecule of dimeric form

CD3-GITRL BsM_M = target: T2, CD3-GITRL BsM_M
T2 construct: glycosylated; also called anti-CD3/GITRL bispecific molecule of monomeric form

CD3-CD70 BsM_M = target: T3, CD3-CD70 BsM_M
T3 construct: N-glycosylated; also called anti-CD3/CD70 bispecific molecule of monomeric form

CD3-CD70 BsM_D = target: T4, CD3-CD70 BsM_D
T4 construct: glycosylated, disulfide-linked dimer; also called anti-CD3/CD70 bispecific molecule of dimeric form

CD3-B7RP-1 BsM_D = target: T5, CD3-B7RP-1 BsM_D
T5 construct: glycosylated, disulfide-linked dimer; also called anti-CD3/B7RP-1 bispecific molecule of dimeric form

CD3-B7RP-1 BsM_M = target: T6, CD3-B7RP-1 BsM_M
T6 construct: N-glycosylated on the B7RP-1 part; also called anti-CD3/B7RP-1 bispecific molecule of monomeric form

CD3-OX40L BsM_D = target: T7, CD3-OX40L BsM_D
T7 construct: glycosylated, disulfide-linked dimer; also called anti-CD3/OX40L bispecific molecule of dimeric form

CD3-OX40L BsM_M = target: T8, CD3-OX40L BsM_M
T8 construct: N-glycosylated; also called anti-CD3/OX40L bispecific molecule of monomeric form

B1: human GITR-hFc recombinant protein (Fc fusion)
chain: QRPTGGPGCGPGRLLLGTGTDARCCRVHTTRCCRDYPGEECCSEWDCMCVQPEFHCGDPCCTTCRHHPCPPGQGVQSQGKFSFGFQCIDCASGTFSGGHEGHCKPWTDCTQFGFLTVFPGNKTHNAVCVPGSPPAE
notes: Purchased from Novoprotein; also called GITR-hFc recombinant antigen; not shown: human Fc (hFc) of the purchased fusion
- binding result (CD3-GITRL BsM_D): binds
- binding result (CD3-GITRL BsM_M): binds

B2: human CD27-hFc recombinant protein (Fc fusion)
chain: TPAPKSCPERHYWAQGKLCCQMCEPGTFLVKDCDQHRKAAQCDPCIPGVSFSPDHHTRPHCESCRHCNSGLLVRNCTITANAECACRNGWQCRDKECTECDPLPNPSLTARSSQALSPHPQPTHLPYVSEMLEARTAGHMQTLADFRQLPARTLSTHWPPQRSLCSSDFIR
notes: Purchased from Novoprotein; also called CD27-hFc recombinant antigen; not shown: human Fc (hFc) of the purchased fusion
- binding result (CD3-CD70 BsM_M): binds
- binding result (CD3-CD70 BsM_D): binds

B3: human ICOS-hFc recombinant protein (Fc fusion)
chain: EINGSANYEMFIFHNGGVQILCKYPDIVQQFKMQLLKGGQILCDLTKTKGSGNTVSIKSLKFCHSQLSNNSVSFFLYNLDHSHANYYFCNLSIFDPPPFKVTLTGGYLHIYESQLCCQLK
notes: Purchased from Novoprotein; also called ICOS-hFc recombinant antigen; not shown: human Fc (hFc) of the purchased fusion
- binding result (CD3-B7RP-1 BsM_D): binds
- binding result (CD3-B7RP-1 BsM_M): binds

B4: human OX40-hFc recombinant protein (Fc fusion)
chain: LHCVGDTYPSNDRCCHECRPGNGMVSRCSRSQNTVCRPCGPGFYNDVVSSKPCKPCTWCNLRSGSERKQLCTATQDTVCRCRAGTQPLDSYKPGVDCAPCPPGHFSPGDNQACKPWTNCTLAGKHTLQPASNSSDAICEDRDPPATQPQETQGPPARPITVQPTEAWPRTSQGPSTRPVEVPGGRA
notes: Purchased from Novoprotein; also called OX40-hFc recombinant antigen; not shown: human Fc (hFc) of the purchased fusion
- binding result (CD3-OX40L BsM_D): binds
- binding result (CD3-OX40L BsM_M): binds
